This is an account of results in article PMC3185033, “Exportin 4 Interacts with Sox9 through the HMG Box and Inhibits the DNA Binding of Sox9” (PLoS ONE, 2011).

The experiment addresses T1, purified recombinant FLAG-Exp4 protein (human, UniProt Q9C0E2 1-1151).
T1 construct: human exportin 4, full-length cDNA assembled from three clones; also called recombinant Exp4; source: baculovirus system (pFASTBAC), purified recombinant
As to the kind of experiment: pull-down; GST-fused HMG box fragments incubated with purified recombinant FLAG-Exp4 and glutathione Sepharose 2 hr at 4°C; Western blot with anti-Exp4; no RanGTP. The settings on record: both partners purified. In general terms: In western blotting, separated proteins are transferred to a membrane and probed.

T1 sequence (Q9C0E2 whole entry): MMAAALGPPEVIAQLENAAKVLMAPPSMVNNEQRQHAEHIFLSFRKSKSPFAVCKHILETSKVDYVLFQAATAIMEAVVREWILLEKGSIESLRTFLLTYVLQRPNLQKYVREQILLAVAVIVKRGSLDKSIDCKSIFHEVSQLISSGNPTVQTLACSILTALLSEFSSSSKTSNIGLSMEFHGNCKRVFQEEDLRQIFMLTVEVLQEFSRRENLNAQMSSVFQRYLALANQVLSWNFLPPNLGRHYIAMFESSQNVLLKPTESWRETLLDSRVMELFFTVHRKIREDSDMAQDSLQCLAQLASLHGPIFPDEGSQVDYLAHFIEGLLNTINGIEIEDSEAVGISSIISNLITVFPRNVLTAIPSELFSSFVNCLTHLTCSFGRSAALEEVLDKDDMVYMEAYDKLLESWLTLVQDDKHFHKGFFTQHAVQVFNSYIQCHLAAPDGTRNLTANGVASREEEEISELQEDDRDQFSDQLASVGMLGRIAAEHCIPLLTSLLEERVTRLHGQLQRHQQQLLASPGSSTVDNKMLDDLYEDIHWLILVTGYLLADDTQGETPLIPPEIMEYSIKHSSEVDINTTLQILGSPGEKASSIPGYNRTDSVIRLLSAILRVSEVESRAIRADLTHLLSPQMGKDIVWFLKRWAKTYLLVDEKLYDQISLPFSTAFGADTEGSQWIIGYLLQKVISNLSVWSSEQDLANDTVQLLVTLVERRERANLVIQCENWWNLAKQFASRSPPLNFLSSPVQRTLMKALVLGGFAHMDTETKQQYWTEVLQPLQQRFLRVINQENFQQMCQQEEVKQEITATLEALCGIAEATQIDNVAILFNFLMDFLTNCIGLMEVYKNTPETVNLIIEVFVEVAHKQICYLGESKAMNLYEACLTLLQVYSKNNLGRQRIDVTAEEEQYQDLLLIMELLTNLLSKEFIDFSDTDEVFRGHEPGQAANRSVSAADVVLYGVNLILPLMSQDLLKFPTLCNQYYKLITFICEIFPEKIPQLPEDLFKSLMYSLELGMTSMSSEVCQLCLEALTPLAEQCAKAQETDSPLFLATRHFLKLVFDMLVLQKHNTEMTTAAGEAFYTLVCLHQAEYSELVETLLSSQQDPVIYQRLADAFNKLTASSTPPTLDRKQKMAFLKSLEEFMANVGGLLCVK

B1: GST-fused Sox9 region #2 (95–186 a.a.), HMG box domain (domain or fragment, mouse, UniProt Q04887 95-186, looked up)
chain: VNGSSKNKPHVKRPMNAFMVWAQAARRKLADQYPHLHNAELSKTLGKLWRLLNESEKRPFVEEAERLRVQHKKDHPDYKYQPRRRKSVKNGQ
notes: cloned in pGEX-6P-1; also called GST-tagged HMG box fragment of Sox9
As to B1, the binding result is given as “binds”.

B2: GST-tagged HMG box fragment of Sox2 (33–123 a.a.) (domain or fragment)
chain: not shown
notes: source: E. coli, prepared on glutathione-Sepharose
Consider B2, for which the binding result is “binds”.
